The source of these data is patent publication US20250163449A1, “HERBICIDE-TOLERANT GENES AND METHOD FOR USING SAME” (QINGDAO KINGAGROOT CHEMICAL COMPOUND CO., LTD., priority 2022, published 2025).

Data set [1] in a line: Conversion rate of substrate compound A by E. coli expressing each engineered protein (HPLC, oxygenase activity). It counts as biochemical. The settings on record: Reaction condition 1: bacteria cultured overnight, substrate compound A and IPTG added to react overnight.
Data set [2] is described as follows: Enzymatic kinetic measurements of purified proteins with compound A as substrate. It counts as biochemical. The note with it: purified protein, compound A 0-1000 μM as substrate. On the procedure:
Based on the results of HPLC, representative engineered proteins were selected for protein purification. Further protein characterization, such as Km, Vmax and Kcat, was performed on the 8 engineered proteins from Table 2. Conventional Ni column affinity chromatography was used for protein purification and protein extract purity was assessed by SDS-PAGE analysis. After determining protein concentration by BCA method, enzyme activity was determined.

Data set [3] has as its system rice (Jinjing 818). The data set is described as follows: Transgenic rice seedlings, compound B added to medium at rooting phase. The class given is in vivo. The settings on record: at least 1 μM compound B in medium (0.5 and 1 μM for SEQ ID NO: 42), 17-26 days. On the procedure: Plant transformation vectors were constructed, each comprising a recombinant DNA molecule encoding an engineered protein (SEQ ID NO: 42/38/82/86/102/106/126/138/142) with the protein-coding sequence optimized for monocot expression, and rice (Jinjing 818) calli were transformed with these vectors using Agrobacterium tumifaciens and standard methods known in the art. Different concentrations of hormone herbicide compound B were added at the rooting phase of the rice seedlings to test hormone resistance, wherein, the test results of control Jinjing 818 plants and transgenic Jinjing 818 plants comprising the protein-coding gene of SEQ ID NO: 42 after adding 0.5 μM and 1 μM compound B to medium for 19 days are shown in FIG. 1. The test results of control Jinjing 818 plants and transgenic Jinjing 818 plants comprising the protein-coding genes of SEQ ID NO: 38/82/86/102/106/126/138/142 after adding 1 μM compound B to medium are shown in FIG. 5-11.

The test system of data set [4] is rice (Jinjing 818). Put plainly: Transgenic rice T0 plantlets in greenhouse sprayed with compound B. The class given is in vivo. On the procedure:
Then, the obtained regenerated TO generation transgenic plantlets grew in the greenhouse, and were sprayed with compound B at the growth stage when approximately two leaves unfolded and the third one just appearing. Resistance levels of plants were recorded and evaluated after spraying treatment, wherein, the test results of control Jinjing 818 plants and transgenic Jinjing 818 plants comprising the protein-coding gene of SEQ ID NO: 42 after applying 20 g, 40 g, 60 g, 80 g, 100 g, 120 g/mu (1 mu=1/15 ha) compound B for corresponding days (DAT) are shown in FIG. 2.

Data set [5] concerns Arabidopsis thaliana. Put plainly: T2 transgenic Arabidopsis thaliana seeds screened on compound A medium. The settings on record: 0.15 μM compound A in medium, 11-24 days. The class given is in vivo. The text has this:
Engineered proteins were selected for Arabidopsis thaliana transformation and plant analysis. DNA constructs were transformed into Arabidopsis thaliana using Agrobacterium tumifaciens and standard methods known in the art.
The transformed TO transgenic plantlets grew in the greenhouse. T1 generation Arabidopsis thaliana plant seeds produced by transformation of all constructs were collected after approximately 60 days of growth. Transgenic T1 generation Arabidopsis thaliana plants were screened by adding HYG to medium for T1 generation. T1 plants were selfed to produce seeds of T2 generation Arabidopsis thaliana plants. Wherein, compound A was added to medium to screen and test T2 generation Arabidopsis thaliana plant seeds, that were produced by all constructs, comprising unique events screened by T1 generation.

Data set [6] deals with Arabidopsis thaliana. Put plainly: T2 transgenic Arabidopsis thaliana plants foliage-sprayed with compound B. The class given is in vivo. The note with it: foliage-sprayed with 40 g/mu compound B, 12 days. The source says: In addition, compound B was sprayed to test T2 generation Arabidopsis thaliana plants, that were produced by some of the constructs, comprising unique events screened by T1 generation, wherein, the test results of the wild-type Arabidopsis thaliana control plants transformed with RdpA gene and Arabidopsis thaliana plants comprising the protein-coding gene of SEQ ID NO: 42 after being foliage-sprayed with 40 g/mu compound B for 12 days are shown in FIG. 4.

A further data set has as its system soybean. The data set is described as follows: Transgenic soybeans sprayed with compound C. It counts as in vivo. The note with it: T1 generation plantlets, 10 g, 20 g, 40 g, 80 g compound C sprayed; at least 40 g. On the procedure: Engineered proteins were selected for soybean transformation and plant analysis. DNA constructs were transformed into soybeans using Agrobacterium tumifaciens and standard methods known in the art.
The transformed TO transgenic plantlets grew in the greenhouse. TO generation transgenic plantlets were tested by spraying 10 g compound C. […] T1 generation soybean plant seeds produced by transformation of all constructs were collected, and T1 generation seedlings were tested by spraying 10 g compound C.

B1: SEQ ID NO: 42: RdpA mutant L82H + V187L + F182W + G103L (protein)
chain: MHAALSPLSQRFERIAVQPLTGVLGAEITGVDLREPLDDSTWNEILDAFHTYQVIYFPGQAITNEQHIAFSRRFGPVDPVPHLKSIEGYPEVQMIRREANESLRVIGDDWHTDSTFLDAPPAAVVMRAIDVPEHGGDTGFLSMYTAWETLSPTMQATIEGLNVVHSATRVFGSLYQAQNRRWSNTSLKVMDVDAGDRETVHPLVVTHPGSGRKGLYVNQVYCQRIEGMTDAESKPLLQFLYEHATRFDFTCRVRWKKDQVLVWDNLCTMHRAVPDYAGKFRYLTRTTVGGVRPAR
Broadly, the Km is the substrate concentration at which the rate is half of its maximum. In data set [1], B1 yielded a Conversion rate of 96.6%. In data set [2], the Kcat worked out at 0.86 S^−1, the Km came to 81.3 µM and the Vmax is on record as 99.6. Further, in the data set with rice (Jinjing 818) [3], the “drug resistance (tolerance to compound B) compared with wild-type plants” value was “exhibited better drug resistance”. In addition, in the data set on rice (Jinjing 818) [4] (T0 plantlets foliage-sprayed with 20-120 g/mu compound B, tolerance at at least 120 g/mu), the “drug resistance (tolerance to compound B) compared with wild-type plants” value is listed as “exhibited better drug resistance”. Further, the “tolerance compared with the wild types (summary)” value with rice (Jinjing 818) [4] (medicated medium test and greenhouse spraying test for T0 generation, compound B) was “exhibited apparent tolerance”. In the data set with Arabidopsis thaliana [5], the “drug resistance compared with wild-type Arabidopsis thaliana (longer roots and larger leaves)” value is “exhibited better drug resistance”. The “drug resistance compared with wild-type plants transformed with RdpA gene” value in the data set on Arabidopsis thaliana [6] is on record as “exhibited better drug resistance”. For the same molecule, the “drug resistance compared with the wild-type soybeans” value with soybean is “exhibited better drug resistance”.
